Experimental data: the Human Domainome abundance scans (Beltran et al. 2025)
± gives the uncertainty stated by the source.

B1: CD2-associated protein, residues 109 to 169; numbered along this chain, Q9Y5K6 (parent)
chain: KKRQCKVLFEYIPQNEDELELKVGDIIDINEEVEEGWWSGTLNNKLGLFPSNFVKELEVTD
B2: F-BAR and double SH3 domains protein 1, residues 467 to 528; numbered along this chain, Q86WN1 (parent)
chain: RALPCPAHVVFRYQAGREDELTITEGEWLEVIEEGDADEWVKARNQHGEVGFVPERYLNFPD

Variants of: B1
Experiment: abundance fitness (aPCA) (normalised: wild type 0, dead -1); higher = more abundant; growth selection in yeast, the domain comes from the species named
Conditions: Homo sapiens

V7F and G24A are within error of each other in abundance fitness: -0.826 ± 0.38 for the first, -0.783 ± 0.28 for the second.

K2A and E31S are within error of each other in abundance fitness: -0.197 ± 0.16 for the first, -0.33 ± 0.13 for the second.

E32A and I29Y are within error of each other in abundance fitness: -0.38 ± 0.24 for the first, -0.886 ± 0.31 for the second.

V23P and L57A are within error of each other in abundance fitness: -0.08 ± 0.28 for the first, -0.585 ± 0.4 for the second.

Compared with D17S, K22P is lower in abundance fitness: 0.289 ± 0.14 for the first, -0.612 ± 0.43 for the second.

L46H and D17G are within error of each other in abundance fitness: 0.035 ± 0.051 for the first, -0.092 ± 0.12 for the second.

D28E and N52K are within error of each other in abundance fitness: 0.131 ± 0.11 for the first, 0.048 ± 0.16 for the second.

First: L19G
Second: E34T
The abundance fitness of the first is lower: -0.508 ± 0.21 for the first, 0.008 ± 0.11 for the second.

Q4S and Y11N are within error of each other in abundance fitness: 0.134 ± 0.22 for the first, -0.344 ± 0.42 for the second.

L42N and E56C are within error of each other in abundance fitness: 0.12 ± 0.15 for the first, 0.034 ± 0.14 for the second.

Going from I29H to F53I, the abundance fitness rises from -0.482 ± 0.28 to 0.149 ± 0.11.

Going from C5G to K1M, the abundance fitness falls from 0.235 ± 0.054 to -0.184 ± 0.22.

Going from E34A to L42W, the abundance fitness falls from -0.167 ± 0.15 to -0.945 ± 0.45.

E58R and L8T are within error of each other in abundance fitness: -0.232 ± 0.1 for the first, -0.192 ± 0.14 for the second.

Going from P13G to K6L, the abundance fitness rises from -0.547 ± 0.13 to 0.255 ± 0.046.

I27W and L21Q are within error of each other in abundance fitness: -0.913 ± 0.24 for the first, -0.893 ± 0.42 for the second.

E35D gave an abundance fitness of -0.146 ± 0.33.

Variants of: B2
Experiment: as above
Conditions: Homo sapiens

F60K and P6N are within error of each other in abundance fitness: -0.533 ± 0.1 for the first, -0.617 ± 0.15 for the second.

G35N and V10K are within error of each other in abundance fitness: -0.276 ± 0.11 for the first, -0.094 ± 0.085 for the second.

First: V31P
Second: V10F
The abundance fitness of the first is lower: -0.969 ± 0.19 for the first, -0.465 ± 0.14 for the second.

Compared with W28V, P6R is lower in abundance fitness: 0.107 ± 0.071 for the first, -0.077 ± 0.046 for the second.

Going from L21M to A15E, the abundance fitness falls from -0.198 ± 0.071 to -0.438 ± 0.12.

E20S and D62Q are within error of each other in abundance fitness: -0.385 ± 0.061 for the first, -0.276 ± 0.17 for the second.

E49H and Y57A are within error of each other in abundance fitness: -0.015 ± 0.12 for the first, 0.102 ± 0.048 for the second.

First: L3W
Second: V31F
The abundance fitness of the first is higher: -0.53 ± 0.065 for the first, -0.991 ± 0.19 for the second.

Compared with L29M, V10T is higher in abundance fitness: -0.508 ± 0.13 for the first, -0.167 ± 0.099 for the second.

A7C and A15Y are within error of each other in abundance fitness: -0.441 ± 0.21 for the first, -0.875 ± 0.25 for the second.

E34D and E30R are within error of each other in abundance fitness: -0.409 ± 0.23 for the first, -0.474 ± 0.085 for the second.

First: F60R
Second: F60T
The abundance fitness of the first is higher: -0.329 ± 0.047 for the first, -0.499 ± 0.091 for the second.

Compared with A2G, V50C is lower in abundance fitness: 0.133 ± 0.043 for the first, -0.191 ± 0.17 for the second.

First: P6E
Second: R44V
The abundance fitness of the first is lower: -0.294 ± 0.074 for the first, -0.165 ± 0.042 for the second.

T24M and A2C are within error of each other in abundance fitness: -0.02 ± 0.063 for the first, 0.031 ± 0.061 for the second.

Compared with F11I, L29G is lower in abundance fitness: 0.12 ± 0.074 for the first, -0.975 ± 0.18 for the second.

L58N and V41P are within error of each other in abundance fitness: -1.02 ± 0.46 for the first, -0.94 ± 0.2 for the second.

E25A and R56W are within error of each other in abundance fitness: -0.129 ± 0.078 for the first, -0.263 ± 0.12 for the second.

Going from V50D to W40S, the abundance fitness rises from -0.599 ± 0.25 to -0.25 ± 0.05.

Going from V10C to A43H, the abundance fitness falls from -0.037 ± 0.1 to -0.629 ± 0.26.

Compared with P54Y, T22F is lower in abundance fitness: -0.14 ± 0.087 for the first, -0.742 ± 0.12 for the second.

Going from D19L to L29N, the abundance fitness falls from -0.086 ± 0.037 to -0.577 ± 0.17.

Compared with T24Q, V53E is lower in abundance fitness: 0.051 ± 0.082 for the first, -0.934 ± 0.16 for the second.

E18F and P54G are within error of each other in abundance fitness: -0.28 ± 0.12 for the first, -0.299 ± 0.059 for the second.

D38H and K42I are within error of each other in abundance fitness: -0.002 ± 0.19 for the first, 0.092 ± 0.085 for the second.

E49A gave an abundance fitness of -0.131 ± 0.093.
